Legend:
[1] = biological target: the molecule itself; test: crystal structure
[2] = biological target: T1, HipA mutant D309Q (Escherichia coli, UniProt P23874 1-440, D309Q); test: crystal structure
T1 sequence: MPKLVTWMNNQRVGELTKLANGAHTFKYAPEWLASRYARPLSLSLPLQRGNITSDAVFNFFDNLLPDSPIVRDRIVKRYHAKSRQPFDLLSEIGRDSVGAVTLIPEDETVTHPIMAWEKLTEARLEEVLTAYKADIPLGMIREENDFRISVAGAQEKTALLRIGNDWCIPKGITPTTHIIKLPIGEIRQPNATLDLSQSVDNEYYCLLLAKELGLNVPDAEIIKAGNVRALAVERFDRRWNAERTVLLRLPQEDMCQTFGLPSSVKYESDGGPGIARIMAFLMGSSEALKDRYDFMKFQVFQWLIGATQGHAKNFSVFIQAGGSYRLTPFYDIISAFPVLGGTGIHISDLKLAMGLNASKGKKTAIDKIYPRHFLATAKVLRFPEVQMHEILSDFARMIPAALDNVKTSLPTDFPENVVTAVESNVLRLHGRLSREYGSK

[3] = biological target: T1, HipA mutant D309Q; test: fluorescence polarisation

B1: HipB (natural protein)
chain: MMSFQKIYSPTQLANAMKLVRQQNGWTQSELAKKIGIKQATISNFENNPDNTTLTTFFKILQSLELSMTLCDAKNASPESTEQQNLEW
Question: For B1, which “stoichiometry N” value [1] is on record?
Answer: 2

Question: Does B1 bind [2]?
Answer: binds

Question: With IREGGRTVGA [EF-Tu peptide IREGGRTVGA] as the binder, how does the Kd [3] read?
Answer: 15 ± 5 µM
